Molecular target: T1, rPfSEP-1A (recombinant polypeptide encoded by nt 2,431-3,249 of PF3D7_1021800, aa 810-1083 of PfSEP-1)
T1 chain: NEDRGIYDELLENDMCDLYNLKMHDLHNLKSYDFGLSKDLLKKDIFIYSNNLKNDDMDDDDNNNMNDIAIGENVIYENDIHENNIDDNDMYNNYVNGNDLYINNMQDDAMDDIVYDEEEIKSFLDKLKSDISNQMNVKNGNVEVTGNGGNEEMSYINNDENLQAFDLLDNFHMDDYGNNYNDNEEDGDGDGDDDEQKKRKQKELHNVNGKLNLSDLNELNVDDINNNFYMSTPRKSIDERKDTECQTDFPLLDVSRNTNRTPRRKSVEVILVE

B1: rPfCDPK-5 (recombinant Plasmodium falciparum calcium-dependent protein kinase 5, PF3D7_1337800) (protein)
chain: MKETEVEDMDTNRKDGKIKKKEKIVNMKNEEVKSTTKSTLADSDEDYSIITLCTKCLSKKLEDNKNRIILDSKAFKDNRLKGRCSVSSNEDPLDNKLNLSPYFDRSQIIQEIILMNNDELSDVYEIDRYKLGKGSYGNVVKAVSKRTGQQRAIKIIEKKKIHNIERLKREILIMKQMDHPNIIKLYEVYEDNEKLYLVLELCDGGELFDKIVKYGSFSEYEAYKIMKQIFSALYYCHSKNIMHRDLKPENILYVDNTEDSPIQIIDWGFASKCMNNHNLKSVVGTPYYIAPEILRGKYDKRCDIWSSGVIMYILLCGYPPFNGKNNDEILKKVEKGEFVFDSNYWARVSDDAKDLICQCLNYNYKERIDVEQVLKHRWFKKFKSNNLIINKTLNKTLIEKFKEFHKLCKIKKLAVTCIAYQLNEKDIGKLKKTFEAFDHNGDGVLTISEIFQCLKVNDNEFDRELYFLLKQLDTDGNGLIDYTEFLAACLDHSIFQQDVICRNAFNVFDLDGDGVITKDELFKILSFSAVQVSFSKEIIENLIKEVDSNNDGFIDYDEFYKMMTGVKE
- phosphorylation: rPfCDPK-5 was found to phosphorylate rPfSEP-1A

From patent US20210283233A1
